Assay in all cases: flow cytometry on RBCs, CHO supernatant 10 ng/ml
One assay deals with T1, human CD47 (human, UniProt Q08722 19-323).
T1 construct: whole, on cells; also called CD47 on human RBCs; CD47 on OV10 cells
The method, then:
(§1) RBCs are incubated for 60 minutes on ice with tissue culture supernatants containing the secreted humanized antibodies at a concentration of 10 ng/ml in a solution of phosphate buffered saline, pH 7.2, 2.5 mM EDTA (PBS+E), or with various concentrations of purified antibodies. Cells are then washed with cold PBS+E, and incubated for an additional hour on ice with FITC labeled donkey anti-human antibody (Jackson Immuno Research Labs, West Grove, Pa.; Catalogue #709-096-149) in PBS+E. Cells are then washed with PBS+E, and antibody binding is analyzed using a BD FACSAria Cell Sorter (Becton Dickinson) or a C6 Accuri Flow Cytometer (Becton Dickinson). Antibody binding is quantitated by comparison of mean fluorescence values relative to that of chimeric antibody >VxP037-01LC (SEQ ID NO:7))/>VxPO37-01HC (SEQ ID NO:57). The mean fluorescence value for each antibody is divided by the mean fluorescence value for the chimeric antibody.

A further assay has as its target T2, mouse CD47 (mouse, UniProt Q61735 19-303).
T2 construct: whole, on cells; also called CD47 on mouse RBCs; CD47 on 4T1 cells
T2 sequence (looked up): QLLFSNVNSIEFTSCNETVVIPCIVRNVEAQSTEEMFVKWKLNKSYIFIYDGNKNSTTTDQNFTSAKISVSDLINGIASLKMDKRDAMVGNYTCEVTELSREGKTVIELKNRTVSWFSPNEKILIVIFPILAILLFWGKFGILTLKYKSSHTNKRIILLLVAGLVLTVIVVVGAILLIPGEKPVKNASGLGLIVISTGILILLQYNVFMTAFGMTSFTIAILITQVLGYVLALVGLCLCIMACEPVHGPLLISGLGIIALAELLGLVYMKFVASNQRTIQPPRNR
The method, then:
as §1

In the next assay the target is T3, rat CD47 (rat, UniProt P97829 19-303).
T3 construct: whole, on cells; also called CD47 on rat RBCs
T3 sequence (looked up): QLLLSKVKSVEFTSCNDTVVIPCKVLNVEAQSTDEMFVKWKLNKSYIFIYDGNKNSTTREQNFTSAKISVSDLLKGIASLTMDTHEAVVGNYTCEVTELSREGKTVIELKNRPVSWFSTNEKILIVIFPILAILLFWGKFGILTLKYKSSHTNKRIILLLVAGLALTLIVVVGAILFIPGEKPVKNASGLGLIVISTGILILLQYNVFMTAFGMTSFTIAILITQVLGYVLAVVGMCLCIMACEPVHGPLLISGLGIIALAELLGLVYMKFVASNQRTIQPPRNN
The method, then:
as §1

In the next assay the target is T4, pig CD47 (pig, UniProt Q9GKE8 19-303).
T4 construct: whole, on cells; also called CD47 on porcine RBCs
T4 sequence (looked up): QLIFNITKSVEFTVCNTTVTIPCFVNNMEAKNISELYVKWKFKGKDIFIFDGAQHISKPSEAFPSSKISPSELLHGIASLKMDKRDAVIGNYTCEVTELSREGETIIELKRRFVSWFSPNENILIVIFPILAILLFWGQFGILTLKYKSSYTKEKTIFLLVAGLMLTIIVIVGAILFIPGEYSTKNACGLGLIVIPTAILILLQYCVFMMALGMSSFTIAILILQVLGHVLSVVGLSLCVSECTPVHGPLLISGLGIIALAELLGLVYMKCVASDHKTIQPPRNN
The method, then:
as §1

The next assay concerns the target T5, dog CD47 (dog, UniProt A0A8I3PM61 19-310).
T5 construct: also called CD47 on dog RBCs
T5 sequence: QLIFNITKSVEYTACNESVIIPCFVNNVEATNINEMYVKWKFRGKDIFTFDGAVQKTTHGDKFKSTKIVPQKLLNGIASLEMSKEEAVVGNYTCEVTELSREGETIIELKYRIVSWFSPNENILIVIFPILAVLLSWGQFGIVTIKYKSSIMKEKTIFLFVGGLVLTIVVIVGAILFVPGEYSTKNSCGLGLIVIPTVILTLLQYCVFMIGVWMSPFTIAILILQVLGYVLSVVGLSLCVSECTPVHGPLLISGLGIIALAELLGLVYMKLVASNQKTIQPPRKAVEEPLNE
The method, then: as §1

T1 sequence (Q08722 19-323): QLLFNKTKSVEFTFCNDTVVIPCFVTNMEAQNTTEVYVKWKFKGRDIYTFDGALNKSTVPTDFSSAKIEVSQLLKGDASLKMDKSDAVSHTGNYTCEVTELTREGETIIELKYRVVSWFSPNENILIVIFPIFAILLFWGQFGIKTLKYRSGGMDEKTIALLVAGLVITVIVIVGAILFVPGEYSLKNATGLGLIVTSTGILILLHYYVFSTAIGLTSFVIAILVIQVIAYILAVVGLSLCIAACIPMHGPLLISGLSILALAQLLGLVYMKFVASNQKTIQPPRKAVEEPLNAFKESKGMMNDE

B1: chimeric antibody VxP037-01LC-Pro/VxP037-01HC-Pro (antibody, human IgG1, kappa, V domains shown)
VH: EVQLQQFGAELVKPGASMKLSCKASGYTFTNYYVFWVKQRPGQGLEWIGDINPVNGDTNFNEKFKNKATLTVDKSSTTTYLQLSSLTSEDSAVYYCTRGGYTMDYWGQGTLVTVSS
VL: DVVMTQTPLSLSVSLGDQASISCRSSQSLVHSNGNTYLHWYLQKPGQSPKLLIYKVSYRFSGVPDRFSGSGSGTDFTLKISRVEAEDLGVYFCSQNTHVPRTFGQGTKVEIKR
notes: also called Chimera; VxP037-01LC/VxP037-01HC
For B1, the “mean fluorescence relative to chimeric antibody” value in the assay with human CD47, with mouse CD47, with rat CD47, with pig CD47 and in the assay with dog CD47 was 1 ratio throughout.

B2: Clone 2 (pVxK7b-037-hum02-LC / pVxK7b-037-hum02-HC) (antibody, human IgG1, kappa, V domains shown)
VH: QVQLQESGPGLVKPSQTLSLTCTVSGYTFTNYYVFWVRQARGQRLEWIGDINPVNGDTNFNEKFKNRVTISADKSISTAYLQWSSLKASDTAMYYCARGGYTMDYWGQGTLVTVSS
VL: DVVMTQSPLSLPVTLGQPASISCRSSQSLVHSNGNTYLHWYQQKPGQAPRLLIYKVSYRFSGVPSRFSGSGSGTEFTLTISSLQPDDFATYYCSQNTHVPRTFGQGTKVEIKR
Turning to B2, the “mean fluorescence relative to chimeric antibody” value with human CD47 was found to be 1 ratio; in the assay with mouse CD47, 1.2 ratio; with rat CD47, 2.6 ratio; with pig CD47, 1.2 ratio; with dog CD47, 1 ratio.

B3: Clone 14 (pVxK7b-037-hum14-LC / pVxK7b-037-hum14-HC) (antibody, human IgG1, kappa)
heavy: not shown
light: DVVMTQSPLSLPVTLGQPASISCRSSQSLVHSNGNTYLHWYQQKPGKAPKLLIYKVSYRFSGVPDRFSGSGSGTDFTLKISRVEAEDVGVYYCSQNTHVPRTFGQGTKVEIKRTVAAPSVFIFPPSDEQLKSGTASVVCLLNNFYPREAKVQWKVDNALQSGNSQESVTEQDSKDSTYSLSSTLTLSKADYEKHKVYACEVTHQGLSSPVTKSFNRGEC
For B3, the “mean fluorescence relative to chimeric antibody” value in the assay with human CD47 was determined as 1.1 ratio; in the assay with mouse CD47, 1.5 ratio; with rat CD47, 3.2 ratio; in the assay with pig CD47, 1.4 ratio; in the assay with dog CD47, 1.3 ratio.

B4: Clone 19 (pVxK7b-037-hum19-LC / pVxK7b-037-hum19-HC) (antibody, human IgG1, kappa)
heavy: not shown
light: DVVMTQSPLSLPVTLGQPASISCRSSQSLVHSNGNTYLHWYQQKPGKAPKLLIYKVSYRFSGVPDRFSGSGSGTDFTLKISRVEAEDVGVYYCSQNTHVPRTFGQGTKVEIKRTVAAPSVFIFPPSDEQLKSGTASVVCLLNNFYPREAKVQWKVDNALQSGNSQESVTEQDSKDSTYSLSSTLTLSKADYEKHKVYACEVTHQGLSSPVTKSFNRGEC
For the molecule B4, the “mean fluorescence relative to chimeric antibody” value with human CD47 is 0.7 ratio; in the assay with mouse CD47, 1 ratio; in the assay with rat CD47, 2.6 ratio; in the assay with pig CD47 it was 1.3 ratio; with dog CD47, 1.2 ratio.

B5: Clone 20 (pVxK7b-037-hum20-LC / pVxK7b-037-hum20-HC) (antibody, human IgG1, kappa)
heavy: not shown
light: DIVMTQTPLSLPVTPGEPASISCRSSQSLVHSNGNTYLHWYLQKPGQSPQLLIYKVSYRFSGVPDRFSGSGSGTDFTLKISRVEAEDVGVYYCSQNTHVPRTFGQGTKVEIKRTVAAPSVFIFPPSDEQLKSGTASVVCLLNNFYPREAKVQWKVDNALQSGNSQESVTEQDSKDSTYSLSSTLTLSKADYEKHKVYACEVTHQGLSSPVTKSFNRGEC
As for B5, the “mean fluorescence relative to chimeric antibody” value turned out to be 1.3 ratio in the assay with human CD47; 1.5 ratio with mouse CD47; 1.9 ratio with rat CD47; 1.7 ratio with pig CD47; 1.1 ratio with dog CD47.

B6: Clone 3 (pVxK7b-037-hum03-LC / pVxK7b-037-hum03-HC) (antibody, human IgG1, kappa)
heavy: not shown
light: DVVMTQSPLSLPVTLGQPASISCRSSQSLVHSNGNTYLHWYQQKPGKAPKLLIYKVSYRFSGVPDRFSGSGSGTDFTLKISRVEAEDVGVYYCSQNTHVPRTFGQGTKVEIKRTVAAPSVFIFPPSDEQLKSGTASVVCLLNNFYPREAKVQWKVDNALQSGNSQESVTEQDSKDSTYSLSSTLTLSKADYEKHKVYACEVTHQGLSSPVTKSFNRGEC
On to B6, for which the “mean fluorescence relative to chimeric antibody” value stood at 0.7 ratio with human CD47; 0.9 ratio in the assay with mouse CD47; 1.7 ratio with rat CD47; 0.9 ratio in the assay with pig CD47; 0.9 ratio with dog CD47.

B7: Clone 15 (pVxK7b-037-hum15-LC / pVxK7b-037-hum15-HC) (antibody, human IgG1, kappa, V domains shown)
VH: QVQLQESGPGLVKPSQTLSLTCTVSGYTFTNYYVFWVRQARGQRLEWIGDINPVNGDTNFNEKFKNRLTISKDTSKNQVVLTMTNMDPVDTATYYCARGGYTMDYWGQGTLVTVSS
VL: AIQLTQSPSSLSASVGDRVTITCRSSQSLVHSNGNTYLHWYQQKPGQAPRLLIYKVSYRFSGVPSRFSGSGSGTEFTLTISSLQPDDFATYYCSQNTHVPRTFGQGTKVEIKR
Consider B7, for which the “mean fluorescence relative to chimeric antibody” value is 1 ratio with human CD47; 1.3 ratio with mouse CD47; 2.4 ratio with rat CD47; 1.2 ratio with pig CD47; 1.1 ratio with dog CD47.

B8: Clone 22 (pVxK7b-037-hum22-LC / pVxK7b-037-hum22-HC) (antibody, human IgG1, kappa, V domains shown)
VH: QVQLQESGPGLVKPSQTLSLTCTVSGYTFTNYYVFWVRQARGQRLEWIGDINPVNGDTNFNEKFKNRLTISKDTSKNQVVLTMTNMDPVDTATYYCARGGYTMDYWGQGTLVTVSS
VL: EIVLTQSPATLSVSPGERATLSCRSSQSLVHSNGNTYLHWYQQKPGQAPRLLIYKVSYRFSGVPSRFSGSGSGTDFTFTISSLEAEDAATYYCSQNTHVPRTFGQGTKVEIKR
Take B8: the “mean fluorescence relative to chimeric antibody” value with human CD47 worked out at 1.1 ratio; with mouse CD47 it was 1.2 ratio; with rat CD47, 2.8 ratio; with pig CD47, 1.4 ratio; with dog CD47 it was 1 ratio.

B9: Clone 6 (pVxK7b-037-hum06-LC / pVxK7b-037-hum06-HC) (antibody, human IgG1, kappa, V domains shown)
VH: QVQLQESGPGLVKPSQTLSLTCTVSGYTFTNYYVFWVRQARGQRLEWIGDINPVNGDTNFNEKFKNRLTISKDTSKNQVVLTMTNMDPVDTATYYCARGGYTMDYWGQGTLVTVSS
VL: DIQMTQSPSSLSASVGDRVTITCRSSQSLVHSNGNTYLHWYLQKPGQSPQLLIYKVSYRFSGIPARFSGSGSGTEFTLTISSLQSEDFAVYYCSQNTHVPRTFGQGTKVEIKR
On to B9, for which the “mean fluorescence relative to chimeric antibody” value turned out to be 0.9 ratio in the assay with human CD47; 1.2 ratio in the assay with mouse CD47; 2.1 ratio with rat CD47; 1.1 ratio with pig CD47; 1.1 ratio in the assay with dog CD47.

B10: Clone 21 (pVxK7b-037-hum21-LC / pVxK7b-037-hum21-HC) (antibody, human IgG1, kappa, V domains shown)
VH: QVQLQESGPGLVKPSQTLSLTCTVSGYTFTNYYVFWVRQARGQRLEWIGDINPVNGDTNFNEKFKNRLTISKDTSKNQVVLTMTNMDPVDTATYYCARGGYTMDYWGQGTLVTVSS
VL: AIQLTQSPSSLSASVGDRVTITCRSSQSLVHSNGNTYLHWYQQKPGQAPRLLIYKVSYRFSGVPDRFSGSGSGTDFTLKISRVEAEDVGVYYCSQNTHVPRTFGQGTKVEIKR
In the case of B10, the “mean fluorescence relative to chimeric antibody” value in the assay with human CD47 was 1.2 ratio; with mouse CD47, 1.2 ratio; in the assay with rat CD47, 2.8 ratio; with pig CD47, 1.4 ratio; with dog CD47, 1.1 ratio.
